“And” between values parts separate entries of the source, which are not always exact repeats. Identical values can stand only once.
Tests used:
[1] = target: HLA-DR on Raji cells (human); assay: antibody blocking of labelled peptide binding to Raji cells
[2] = target: class II MHC antigens on antigen-presenting cells of human peripheral mononuclear cells
[3] = target: class II MHC antigens on antigen-presenting cells of human peripheral mononuclear cells; remark: listed apart in the source
[4] = target: class II MHC antigens on antigen-presenting cells of human peripheral mononuclear cells; remark: listed apart in the source
[5] = target: human class II MHC molecules on Raji cells
[6] = target: human class II MHC molecules on Raji cells; assay: competition with ^125 I-HIV-1 Nef(123-160) on Raji cells
[7] = target: murine class II MHC molecules on A20 cells (I-A^d and I-E^d)
[8] = target: DR1 on DR1-transfected L cells (Homo sapiens (Human)) (UniProt P01903)
[9] = target: human class II MHC molecules on Raji cells; remark: listed apart in the source
[10] = target: human class II MHC molecules on Raji cells; assay: competition with ^125 I-SEA on Raji cells
[11] = target: murine class II MHC molecules on A20 cells (I-A^d and I-E^d); assay: competition with ^125 I-MMTV ORF(76-119) on A20 cells
[12] = target: murine class II MHC molecules on A20 cells (I-A^d and I-E^d); assay: dose-response competition with ^125 I-SEA on A20 cells

In the case of “Clone L243, a monoclonal antibody specific for HLA-DR”, the percent reduction of ^125 I-HIV-1 Nef(123-160) binding [1] is reported as 35%.
Substance “HIV-1 Nef protein (from UniProt P03406) (ligand)” has a stimulation index (SI) of proliferation of whole human PMNC [2] of 26.4 SI and an IFNγ (U/ml) in supernatants of whole PMNC, 96 h [3] of 1500 U/ml.
For HIV-1 Nef(123-160) (peptide), the stimulation index (SI) of human PMNC proliferation induced by Nef [4] was 3.9 SI, the stimulation index (SI) of human PMNC proliferation induced by SEA [4] was 6.2 SI and the percent reduction of ^125 I-SEA binding [5] was 20% and 40%. For the same substance, the IC50 [6] was 30000 nM.
HIV-1 Nef(156-186) (peptide) showed a stimulation index (SI) of human PMNC proliferation induced by Nef [4] of 19.6 SI and a stimulation index (SI) of human PMNC proliferation induced by SEA [4] of 16.6 SI.
For SEE (from UniProt P12993) (ligand), the IC50 [6] was 2000 nM.
“staphylococcal enterotoxin A (from UniProt P0A0L2) (ligand)” showed a stimulation index (SI) of proliferation of whole human PMNC [2] of 164 SI, an IFNγ (U/ml) in supernatants of whole PMNC, 72 h [3] of 3000 U/ml and a CPM bound in the absence of competitors [7] of 6380 CPM. For the same substance, the CPM bound in the absence of competitors [8] was 5710 CPM, the CPM bound in the absence of competitors [9] was 31500 CPM and the IC50 [10] was 200 nM. It also gave an IC50 [11] of 1800 nM and a fold more effective a competitor than MMTV ORF(76-119) [12] of 20 times.
